{"source": "paper PMC5357909", "about": "“Structural and functional studies of a noncanonical Dicer from Entamoeba histolytica” (Scientific Reports, 2017)", "key": {"[1]": {"target": "T1, EA256 (EhRNaseIII-AadsRBD chimera) (Entamoeba histolytica / Aquifex aeolicus, UniProt C4LU64 2-256+O67082:145-221, internal_change)", "T1 sequence": "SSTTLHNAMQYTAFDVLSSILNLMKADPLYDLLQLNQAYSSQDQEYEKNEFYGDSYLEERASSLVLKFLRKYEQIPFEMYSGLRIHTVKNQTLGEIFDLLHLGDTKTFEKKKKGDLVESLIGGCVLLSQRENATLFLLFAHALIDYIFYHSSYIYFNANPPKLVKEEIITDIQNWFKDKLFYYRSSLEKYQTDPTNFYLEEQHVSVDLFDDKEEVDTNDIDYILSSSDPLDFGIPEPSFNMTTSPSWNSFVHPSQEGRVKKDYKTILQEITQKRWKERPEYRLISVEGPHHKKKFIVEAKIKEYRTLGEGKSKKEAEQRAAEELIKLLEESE", "test": "EMSA; 5 mM Mg2+; more than 70% bound at 1e-4 M; EMSA (1x): 30 mM Tris-HCl pH 7.5, 30 mM NaCl, 5 mM MgCl2, 1 mM DTT, 0.1 mM EDTA, 5% glycerol; room temperature 10 min then ice 20 min; 6% native PAGE, 0.5x TBE", "details": "protein: recombinant; tags: His-Sumo removed by Ulp1; chain copies: 2; blunt, 25 bp"}, "[2]": {"target": "T1, EA256 (EhRNaseIII-AadsRBD chimera)", "test": "EMSA; 5 mM Mg2+; completely bound at 1e-4 M; EMSA (1x): 30 mM Tris-HCl pH 7.5, 30 mM NaCl, 5 mM MgCl2, 1 mM DTT, 0.1 mM EDTA, 5% glycerol; room temperature 10 min then ice 20 min; 6% native PAGE, 0.5x TBE", "details": "protein: recombinant, tags: His-Sumo removed by Ulp1, chain copies: 2, blunt"}}}
{"binder": "RNA25 (dsRNA) RNA 1: GGGAGAAACGCGGCCUCUUUCUCCC RNA 2: GGGAGAAAGAGGCCGCGUUUCUCCC", "values": [{"measurement": "apparent K (half saturation)", "setting": "[1]", "value": "< 100", "unit": "µM"}]}
{"binder": "RNA50 (dsRNA) RNA 1: GGGAGAAACGCGGCCUCUUCUUAUUUAUGGCGACAUGUUGUGCCUCUCCC RNA 2: GGGAGAGGCACAACAUGUCGCCAUAAAUAAGAAGAGGCCGCGUUUCUCCC", "values": [{"measurement": "apparent K (half saturation)", "setting": "[2]; 50 bp", "value": "< 100", "unit": "µM"}]}
{"binder": "RNA70 (dsRNA) RNA 1: GGGAGAAACGCGGCCUCUUCUUAUUUAUGGCGACAUGUUGUGCCACAUAUUGAGCCAGUAGCGCUCUCCC RNA 2: GGGAGAGCGCUACUGGCUCAAUAUGUGGCACAACAUGUCGCCAUAAAUAAGAAGAGGCCGCGUUUCUCCC", "values": [{"measurement": "apparent K (half saturation)", "setting": "[2]; 70 bp", "value": "< 100", "unit": "µM"}]}
{"binder": "RNA100 (dsRNA) RNA 1: GGGAGAAACGCGGCCUCUUCUUAUUUAUGGCGACAUGUUGUGCCACAUAUUGAGCCAGUAGCGCGGUGUAUUAUACCAGACCUUAUUGGUAUGGUCUCCC RNA 2: GGGAGACCAUACCAAUAAGGUCUGGUAUAAUACACCGCGCUACUGGCUCAAUAUGUGGCACAACAUGUCGCCAUAAAUAAGAAGAGGCCGCGUUUCUCCC", "values": [{"measurement": "apparent K (half saturation)", "setting": "[2]; 100 bp", "value": "< 100", "unit": "µM"}]}
